From patent publication US20220275088A1

What was measured:
[1] = molecular target: soluble PD-1 (biotinylated PD-1; expi293 expressed soluble PD1-avi) (human) (UniProt Q15116); test: method not named at the list; Octet (BLI) on biotinylated PD-1 by context
[2] = molecular target: human PD-1 on cells (transfected Expi293 cells, PHA-cultured T cells, cells of the Promega PD1-PDL1 bioassay, T cells of the MLR) (human) (UniProt Q15116); test: cell-based or functional assay
[3] = molecular target: soluble PD-1 (biotinylated PD-1; expi293 expressed soluble PD1-avi) (human) (UniProt Q15116); test: Octet (BLI)

Chain of soluble PD-1 (biotinylated PD-1; expi293 expressed soluble PD1-avi) (human) (Q15116 25-170): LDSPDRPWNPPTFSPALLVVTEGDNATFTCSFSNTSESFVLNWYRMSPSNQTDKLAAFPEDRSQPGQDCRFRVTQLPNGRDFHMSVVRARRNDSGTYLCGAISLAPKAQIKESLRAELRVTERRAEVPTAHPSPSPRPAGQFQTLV
Chain of human PD-1 on cells (transfected Expi293 cells, PHA-cultured T cells, cells of the Promega PD1-PDL1 bioassay, T cells of the MLR) (human) (Q15116 25-288): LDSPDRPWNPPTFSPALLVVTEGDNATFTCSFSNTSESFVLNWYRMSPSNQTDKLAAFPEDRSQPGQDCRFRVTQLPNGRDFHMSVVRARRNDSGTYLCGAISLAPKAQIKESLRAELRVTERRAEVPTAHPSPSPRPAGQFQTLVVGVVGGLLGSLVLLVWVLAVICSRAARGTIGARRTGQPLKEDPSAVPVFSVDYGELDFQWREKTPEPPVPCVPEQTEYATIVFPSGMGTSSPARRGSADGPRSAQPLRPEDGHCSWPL

Binder | Kd [1] | EC50 against Nivo, Promega PD1-PDL1 bioassay (fold of the EC50 of Nivo) [2] | Kd [3] | koff [3] | kon [3]
P4-B3 minibody (scFv-Fc) (Fc fusion, part only; not given: Hinge, Fc, domain order, not shown: another chain or arm of the molecule; a dimerising Fc or GST; small tags and cut ends) VH: QVQLVQSGGGLVQPGRSLRLSCAASGFTFDDYAMHWVRQAPGKGLEWVSGISWNSGSIGYADSVKGRFTVSRDNAKNSLYLQMNSLRAEDTAVYYCASDYGDKYYYYGMDVWGKGTTVTVSS VL: QPGLTQPPSASGTPGQRVTISCSGSSSNIGSNTVNWYQQFPGKAPKLLIFNDNQRPSGVPDRFSASKSGTSASLAISGLQSEDEADYYCAAWDGGLNGRGVFGGGTKLTVL | 1 nM | 1.75 |  |  | 
P4-B3 scFv (scFv, part only; not given: Linker, domain order, tag, V domains shown, not shown: another chain or arm of the molecule; small tags and cut ends) VH: QVQLVQSGGGLVQPGRSLRLSCAASGFTFDDYAMHWVRQAPGKGLEWVSGISWNSGSIGYADSVKGRFTVSRDNAKNSLYLQMNSLRAEDTAVYYCASDYGDKYYYYGMDVWGKGTTVTVSS VL: QPGLTQPPSASGTPGQRVTISCSGSSSNIGSNTVNWYQQFPGKAPKLLIFNDNQRPSGVPDRFSASKSGTSASLAISGLQSEDEADYYCAAWDGGLNGRGVFGGGTKLTVL |  |  | 0.94 nM | 6.45e-05 s⁻¹ | 68500 M⁻¹ s⁻¹
